What was measured:
[1] = target: T1, PD-1-his antigen (UniProt Q15116 25-167, limits assumed); assay: ELISA, PD-1-his coated at 0.25 µg/ml
T1 construct: not shown: his tag
Experimental: An ELISA plate was coated with PD-1-his antigen in a concentration of 0.25 μg/ml (100 μl per well) by incubation at 4° C. overnight.
The ELISA plate coated with the PD-1-his antigen was blocked with 1% BSA in the PBS buffer at 37° C. for 2 hours and washed with 1×PBST buffer containing 1% Tween-20 for three times, with gently patting to dryness.

[2] = target: T2, PD-1-hIgGFc antigen (human, UniProt Q15116 25-167, limits assumed); assay: competitive ELISA, PD-1-hIgGFc coated, competitor PDL1-mIgG2aFc 0.3 µg/ml
T2 construct: not shown: human IgG Fc (hIgGFc)
T2 sequence (Q15116 25-167 limits assumed): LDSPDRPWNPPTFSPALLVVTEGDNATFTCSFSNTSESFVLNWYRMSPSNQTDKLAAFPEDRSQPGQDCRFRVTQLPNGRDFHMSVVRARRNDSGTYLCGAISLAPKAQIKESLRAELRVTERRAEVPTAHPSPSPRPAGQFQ
Experimental: A 96-well ELISA plate was coated with PD-1-hIgGFc antigen in a concentration of 0.5 μg/ml (50 μl per well) by incubation at 4° C. overnight.

[3] = target: T2, PD-1-hIgGFc antigen; assay: competitive ELISA, PD-1-hIgGFc coated, competitor PDL2-his tag 0.5 µg/ml
Experimental: A 96-well ELISA plate was coated with PD-1-hIgGFc antigen in a concentration of 1.0 μg/ml (100 μl per well) by incubation at 4° C. overnight.
After the 96-well ELISA plate was washed with the PBST buffer for five times and gently patted to dryness, HRP-conjugated monoclonal mouse anti-his tag as a secondary antibody in 1:750 dilution (50 μl per well) was added for incubation at 37° C. for 1 hour.

T1 sequence (Q15116 25-167 limits assumed): as above

EC50 [1]: 0.04 nM
EC50 [2]: 0.474 nM
EC50 [3]: 1.83 nM
B1: humanized H8L2 antibody (IgG-like antibody H8L2 against PD-1) (antibody)
heavy: EVQLVQSGGGLVQPGGSLKLSCAASGFTFSSYGMSWVRQAPGKGLDWVATISGGGRDTYYPDSVKGRFTISRDNSKNNLYLQMNSLRAEDTALYYCARQKGEAWFAYWGQGTLVTVSSASTKGPSVFPLAPCSRSTSESTAALGCLVKDYFPEPVTVSWNSGALTSGVHTFPAVLQSSGLYSLSSVVTVPSSSLGTKTYTCNVDHKPSNTKVDKRVESKYGPPCPPCPAPEFLGGPSVFLFPPKPKDTLMITRTPEVTCVVVDVSQEDPEVQFNWYVDGVEVHNAKTKPREEQFNSTYRVVSVLTPLHQDWLNGKEYKCKVSNKGLPSSIEKTISKAKGQPREPQVYTLPPSQEEMTKNQVSLTCLVKGFYPSDIAVEWESNGQPENNYKTTPPVLDSDGSFFLYSRLTVDKSRWQEGNVFSCSVMHEALHAHYTQKSLSLSLGK
light: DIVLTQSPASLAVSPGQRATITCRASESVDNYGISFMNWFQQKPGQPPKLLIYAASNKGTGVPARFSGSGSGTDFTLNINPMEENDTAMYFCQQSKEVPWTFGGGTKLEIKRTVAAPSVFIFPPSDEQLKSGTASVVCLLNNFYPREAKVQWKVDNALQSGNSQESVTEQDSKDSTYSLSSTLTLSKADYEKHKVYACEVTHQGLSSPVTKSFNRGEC
notes: Expressed in 293 cells and purified on protein A; also called 18A10 H8L2
